± gives the standard deviation of the averaged measurements.
system: Saccharomyces cerevisiae; assay: protein stability index of tFT-peptide fusion (C-terminal peptide) (PSI (0-1 scale)); higher = more stable (slower turnover); conditions: genetic background: das1 deletion; temperature: 37 C
Procedure: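 MPS profiling in S. cerevisiae of the tFT-X12 degron library: putative degron peptides plus stable controls, 12 aa, fused to the C-terminus of a sfGFP-mCherry timer. Cells are FACS-sorted into 8 mCherry/sfGFP bins and deep-sequenced. PSI runs from 0 (unstable) to 1 (stable). Backgrounds are wild type, das1Δ and doa10Δ at 30 °C, and wild type, das1Δ, cdc34-1 and cdc53-1 at 37 °C; 2-3 technical replicates each.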
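Note: PSI is a weighted mean of sequencing reads over stability bins, variants kept only with over 10 reads, mCherry proximal and sfGFP distal, peptide attached via GGGS linker.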

Sequence	protein stability index
GFVRTVWLMCYV	0.417 ± 0.013
GFWLAFLWYRES	0.548 ± 0.016
GGAVGVRGGCRG	0.635 ± 0.036
GGCILYFCMSIV	0.505 ± 0.011
GGGSRICIVRLS	0.722 ± 0.0083
GGGVRWGVLVLG	0.599 ± 0.013
GGLGIVWLWLVV	0.4926 ± 0.0048
GGLRILLRLVWT	0.488 ± 0.008
GGWVIVFMVGRG	0.5982 ± 0.002
GIALYVCFICVG	0.4325 ± 0.0026
GIIRVSSQVIVR	0.617 ± 0.0065
GLCLMICVLCFV	0.382 ± 0.0052
GLCSFPCSSCRL	0.812 ± 0.028
GLCVGRMFVRQI	0.7222 ± 0.005
GLFWWVWAGFFC	0.8189 ± 0.0055
GLGFFMSFCFFL	0.567 ± 0.011
GLLAWGCVFWVV	0.544 ± 0.01
GLLGRSRLIFYN	0.788 ± 0.01
GLVAGVYVGSGL	0.741 ± 0.0076
GMCRVELIATCG	0.453 ± 0.011

Sequence	protein stability index
GMGYISVVVWSH	0.2283 ± 0.00048
GQLKGKDETEKK	0.769 ± 0.029
GRHRRYLLLPVH	0.541 ± 0.0057
GRSVLIGLIVRC	0.53715 ± 0.00026
GTLSSSLIKSCA	0.637 ± 0.013
GTVRGDLSLWLC	0.765 ± 0.015
GVGTFRLCVLLV	0.3697 ± 0.0013
GVQVIWGWARVF	0.654 ± 0.019
GVVVWWCYFVFV	0.3631 ± 0.00064
GWLFTFTCAFRV	0.482 ± 0.012
GWRVWVQIIWGR	0.441 ± 0.018
GYGAVHWWFWLF	0.7066 ± 0.006
GYVCVGLVYSVA	0.463 ± 0.0037
HCINYGRIQFCA	0.714 ± 0.024
HEVHATVPNQIM	0.736 ± 0.0095
HFRFSRYIRWVL	0.746 ± 0.0079
HFSCLLIILGFC	0.448 ± 0.0081
HIVWVLQRAFRG	0.504 ± 0.02
HLCVLWVLLLCF	0.383 ± 0.011
HLFDMFFFLLHV	0.611 ± 0.0073

Sequence	protein stability index
HLGAAVYVFSVL	0.705 ± 0.016
HMSAISLIGALA	0.595 ± 0.011
HNLYCKILQLCV	0.497 ± 0.04
HPPRSLTLASSS	0.754 ± 0.025
HRCLFPLEYLLI	0.701 ± 0.026
HSLLLWLLVFFR	0.516 ± 0.0056
HSVPPYPTPPPF	0.616 ± 0.0097
HVLLSSSASIVV	0.6449 ± 0.0028
HYATLMSLRKVL	0.7219 ± 0.0017
IAYCDNGFLVVV	0.695 ± 0.019
IDTSRAATLLPA	0.722 ± 0.011
IFWAKRNLVRVT	0.478 ± 0.0088
IGKEKRMKVIQI	0.735 ± 0.019
IKKKRNKKKMIM	0.731 ± 0.026
IKPSVHILIRTL	0.571 ± 0.02
ILGDPHLALIFP	0.749 ± 0.018
ILVYFQAHAIKI	0.199 ± 0.0036
ISARPFLYSFRP	0.7373 ± 0.0025
ISFSLALSVSFS	0.478 ± 0.029
ISLSCRSFFCLS	0.6691 ± 0.0065

same assay, conditions: genetic background: doa10 deletion; temperature: 30 C

Sequence	protein stability index
GFVRTVWLMCYV	0.129 ± 0.017
GFWLAFLWYRES	0.222 ± 0.015
GGAVGVRGGCRG	0.522 ± 0.05
GGCILYFCMSIV	0.371 ± 0.0097
GGGSRICIVRLS	0.178 ± 0.025
GGGVRWGVLVLG	0.346 ± 0.017
GGLGIVWLWLVV	0.234 ± 0.016
GGLRILLRLVWT	0.381 ± 0.011
GGWVIVFMVGRG	0.334 ± 0.0065
GIALYVCFICVG	0.137 ± 0.026
GIIRVSSQVIVR	0.422 ± 0.012
GLCLMICVLCFV	0.214 ± 0.00016
GLCSFPCSSCRL	0.772 ± 0.024
GLCVGRMFVRQI	0.248 ± 0.0031
GLFWWVWAGFFC	0.428 ± 0.025
GLGFFMSFCFFL	0.474 ± 0.0077
GLLAWGCVFWVV	0.167 ± 0.015
GLLGRSRLIFYN	0.427 ± 0.0058
GLVAGVYVGSGL	0.648 ± 0.031
GMCRVELIATCG	0.229 ± 0.0046

Sequence	protein stability index
GMGYISVVVWSH	0.104 ± 0.015
GQLKGKDETEKK	0.645 ± 0.027
GRHRRYLLLPVH	0.308 ± 0.0055
GRSVLIGLIVRC	0.437 ± 0.023
GTLSSSLIKSCA	0.481 ± 0.01
GTVRGDLSLWLC	0.156 ± 0.012
GVGTFRLCVLLV	0.156 ± 0.022
GVQVIWGWARVF	0.0987 ± 0.029
GVVVWWCYFVFV	0.161 ± 0.0072
GWLFTFTCAFRV	0.4984 ± 0.0014
GWRVWVQIIWGR	0.282 ± 0.0029
GYGAVHWWFWLF	0.1934 ± 0.0013
GYVCVGLVYSVA	0.216 ± 0.0035
HCINYGRIQFCA	0.245 ± 0.012
HEVHATVPNQIM	0.649 ± 0.018
HFRFSRYIRWVL	0.139 ± 0.0018
HFSCLLIILGFC	0.216 ± 0.005
HIVWVLQRAFRG	0.506 ± 0.038
HLCVLWVLLLCF	0.289 ± 0.015
HLFDMFFFLLHV	0.343 ± 0.0048

Sequence	protein stability index
HLGAAVYVFSVL	0.399 ± 0.071
HMSAISLIGALA	0.392 ± 0.0086
HNLYCKILQLCV	0.242 ± 0.017
HPPRSLTLASSS	0.65 ± 0.019
HRCLFPLEYLLI	0.303 ± 0.022
HSLLLWLLVFFR	0.3609 ± 0.0034
HSVPPYPTPPPF	0.302 ± 0.016
HVLLSSSASIVV	0.534 ± 0.03
HYATLMSLRKVL	0.128 ± 0.0077
IAYCDNGFLVVV	0.539 ± 0.013
IDTSRAATLLPA	0.611 ± 0.016
IFWAKRNLVRVT	0.201 ± 0.0051
IGKEKRMKVIQI	0.433 ± 0.0078
IKKKRNKKKMIM	0.316 ± 0.035
IKPSVHILIRTL	0.118 ± 0.022
ILGDPHLALIFP	0.652 ± 0.028
ILVYFQAHAIKI	0.0645 ± 0.012
ISARPFLYSFRP	0.644 ± 0.027
ISFSLALSVSFS	0.567 ± 0.05
ISLSCRSFFCLS	0.446 ± 0.015

same assay, conditions: genetic background: wild type; temperature: 30 C

Sequence	protein stability index
GFVRTVWLMCYV	0.161 ± 0.012
GFWLAFLWYRES	0.248 ± 0.036
GGAVGVRGGCRG	0.512 ± 0.027
GGCILYFCMSIV	0.374 ± 0.0063
GGGSRICIVRLS	0.197 ± 0.023
GGGVRWGVLVLG	0.391 ± 0.036
GGLGIVWLWLVV	0.282 ± 0.02
GGLRILLRLVWT	0.345 ± 0.045
GGWVIVFMVGRG	0.3607 ± 0.0035
GIALYVCFICVG	0.17 ± 0.015
GIIRVSSQVIVR	0.443 ± 0.0097
GLCLMICVLCFV	0.23 ± 0.027
GLCSFPCSSCRL	0.772 ± 0.054
GLCVGRMFVRQI	0.263 ± 0.026
GLFWWVWAGFFC	0.421 ± 0.018
GLGFFMSFCFFL	0.4562 ± 0.0037
GLLAWGCVFWVV	0.198 ± 0.017
GLLGRSRLIFYN	0.458 ± 0.018
GLVAGVYVGSGL	0.616 ± 0.013
GMCRVELIATCG	0.28 ± 0.026

Sequence	protein stability index
GMGYISVVVWSH	0.114 ± 0.017
GQLKGKDETEKK	0.655 ± 0.051
GRHRRYLLLPVH	0.35 ± 0.019
GRSVLIGLIVRC	0.349 ± 0.022
GTLSSSLIKSCA	0.499 ± 0.029
GTVRGDLSLWLC	0.17 ± 0.031
GVGTFRLCVLLV	0.138 ± 0.0077
GVQVIWGWARVF	0.0712 ± 0.032
GVVVWWCYFVFV	0.161 ± 0.021
GWLFTFTCAFRV	0.428 ± 0.016
GWRVWVQIIWGR	0.286 ± 0.02
GYGAVHWWFWLF	0.214 ± 0.026
GYVCVGLVYSVA	0.249 ± 0.038
HCINYGRIQFCA	0.253 ± 0.034
HEVHATVPNQIM	0.653 ± 0.02
HFRFSRYIRWVL	0.151 ± 0.016
HFSCLLIILGFC	0.267 ± 0.023
HIVWVLQRAFRG	0.488 ± 0.016
HLCVLWVLLLCF	0.246 ± 0.019
HLFDMFFFLLHV	0.33 ± 0.022

Sequence	protein stability index
HLGAAVYVFSVL	0.424 ± 0.0089
HMSAISLIGALA	0.434 ± 0.02
HNLYCKILQLCV	0.294 ± 0.025
HPPRSLTLASSS	0.6427 ± 0.0058
HRCLFPLEYLLI	0.344 ± 0.017
HSLLLWLLVFFR	0.367 ± 0.018
HSVPPYPTPPPF	0.372 ± 0.016
HVLLSSSASIVV	0.529 ± 0.026
HYATLMSLRKVL	0.137 ± 0.022
IAYCDNGFLVVV	0.563 ± 0.012
IDTSRAATLLPA	0.631 ± 0.028
IFWAKRNLVRVT	0.251 ± 0.025
IGKEKRMKVIQI	0.477 ± 0.0096
IKKKRNKKKMIM	0.322 ± 0.048
IKPSVHILIRTL	0.14 ± 0.0072
ILGDPHLALIFP	0.666 ± 0.021
ILVYFQAHAIKI	0.0874 ± 0.027
ISARPFLYSFRP	0.644 ± 0.041
ISFSLALSVSFS	0.528 ± 0.011
ISLSCRSFFCLS	0.462 ± 0.019

same assay, conditions: genetic background: wild type; temperature: 37 C

Sequence	protein stability index
GFVRTVWLMCYV	0.203 ± 0.013
GFWLAFLWYRES	0.433 ± 0.033
GGAVGVRGGCRG	0.607 ± 0.026
GGCILYFCMSIV	0.472 ± 0.026
GGGSRICIVRLS	0.406 ± 0.03
GGGVRWGVLVLG	0.553 ± 0.012
GGLGIVWLWLVV	0.467 ± 0.016
GGLRILLRLVWT	0.471 ± 0.014
GGWVIVFMVGRG	0.535 ± 0.02
GIALYVCFICVG	0.276 ± 0.012
GIIRVSSQVIVR	0.5905 ± 0.0054
GLCLMICVLCFV	0.337 ± 0.023
GLCSFPCSSCRL	0.836 ± 0.021
GLCVGRMFVRQI	0.5463 ± 0.0024
GLFWWVWAGFFC	0.624 ± 0.056
GLGFFMSFCFFL	0.55817 ± 0.00049
GLLAWGCVFWVV	0.3379 ± 0.00092
GLLGRSRLIFYN	0.666 ± 0.0092
GLVAGVYVGSGL	0.721 ± 0.01
GMCRVELIATCG	0.4381 ± 0.0011

Sequence	protein stability index
GMGYISVVVWSH	0.155 ± 0.017
GQLKGKDETEKK	0.691 ± 0.0094
GRHRRYLLLPVH	0.485 ± 0.013
GRSVLIGLIVRC	0.479 ± 0.0083
GTLSSSLIKSCA	0.614 ± 0.0095
GTVRGDLSLWLC	0.274 ± 0.023
GVGTFRLCVLLV	0.128 ± 0.0081
GVQVIWGWARVF	0.131 ± 0.036
GVVVWWCYFVFV	0.321 ± 0.0065
GWLFTFTCAFRV	0.4672 ± 0.0025
GWRVWVQIIWGR	0.40261 ± 8.5e-05
GYGAVHWWFWLF	0.3761 ± 0.0034
GYVCVGLVYSVA	0.433 ± 0.0093
HCINYGRIQFCA	0.532 ± 0.06
HEVHATVPNQIM	0.7114 ± 0.0045
HFRFSRYIRWVL	0.332 ± 0.0057
HFSCLLIILGFC	0.459 ± 0.092
HIVWVLQRAFRG	0.485 ± 0.018
HLCVLWVLLLCF	0.368 ± 0.024
HLFDMFFFLLHV	0.504 ± 0.01

Sequence	protein stability index
HLGAAVYVFSVL	0.64 ± 0.03
HMSAISLIGALA	0.5673 ± 0.0013
HNLYCKILQLCV	0.449 ± 0.03
HPPRSLTLASSS	0.7137 ± 0.00092
HRCLFPLEYLLI	0.503 ± 0.018
HSLLLWLLVFFR	0.508 ± 0.012
HSVPPYPTPPPF	0.586 ± 0.025
HVLLSSSASIVV	0.63 ± 0.047
HYATLMSLRKVL	0.316 ± 0.032
IAYCDNGFLVVV	0.652 ± 0.012
IDTSRAATLLPA	0.7161 ± 0.0029
IFWAKRNLVRVT	0.402 ± 0.0096
IGKEKRMKVIQI	0.615 ± 0.013
IKKKRNKKKMIM	0.597 ± 0.013
IKPSVHILIRTL	0.222 ± 0.0071
ILGDPHLALIFP	0.7324 ± 0.0016
ILVYFQAHAIKI	0.202 ± 0.01
ISARPFLYSFRP	0.71009 ± 0.00017
ISFSLALSVSFS	0.469 ± 0.013
ISLSCRSFFCLS	0.5854 ± 0.0049
